Results: US20130165389A1 (AMUNIX OPERATING, published 2013)

T1: human IL6R (human, UniProt P08887 20-358, limits assumed)
T1 construct: also called IL-6 receptor
T1 sequence (looked up): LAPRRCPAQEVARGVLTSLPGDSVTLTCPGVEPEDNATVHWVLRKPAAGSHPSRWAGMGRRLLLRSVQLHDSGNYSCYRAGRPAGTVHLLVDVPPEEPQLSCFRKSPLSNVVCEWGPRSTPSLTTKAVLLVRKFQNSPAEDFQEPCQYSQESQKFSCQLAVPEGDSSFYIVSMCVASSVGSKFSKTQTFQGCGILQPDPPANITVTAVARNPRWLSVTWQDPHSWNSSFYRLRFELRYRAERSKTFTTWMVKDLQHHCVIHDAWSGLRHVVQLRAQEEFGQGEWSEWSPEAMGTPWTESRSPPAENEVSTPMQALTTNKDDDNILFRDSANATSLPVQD


Legend:
human CD40-Fc fusion = biological target: T2, human CD40-Fc fusion (human, UniProt P25942 21-193); assay: ELISA, dilution series of cleared lysate on coated human CD40-Fc; Kd from EC50 and an estimated 10 µM in the lysate
T2 construct: Coated at 100 ng/well; not shown: Fc part of the fusion
T2 sequence (P25942 21-193 limits assumed): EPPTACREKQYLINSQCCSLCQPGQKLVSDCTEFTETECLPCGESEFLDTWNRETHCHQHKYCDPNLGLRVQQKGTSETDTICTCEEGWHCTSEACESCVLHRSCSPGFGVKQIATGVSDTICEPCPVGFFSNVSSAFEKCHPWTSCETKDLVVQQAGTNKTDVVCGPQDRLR

human IL6R = biological target: T1, human IL6R; assay: ELISA, coated human IL6R, biotinylated anti-XTEN antibody and streptavidin-HRP

Kd (human CD40-Fc fusion) [nM] | EC50 (human IL6R) [nM] | Binder
~50 | – | anti-CD40-AE864, AC384 (scFv, Tested as cleared E. coli lysate, not purified; also called aCD40-XTEN; pBC0009) scFv: MAEIVLTQSPATLSLSPGERATLSCRASQSISDYLHWYQQKPGQAPRLLIYYASHSISGIPARFSGSGSGTDFTLTISSLEPEDFAVYYCQHGHSYPWTFGGGTKVEIKTGSGEGSEGEGGGEGSEGEGSGEGGEGEGSGTQVQLVQSGSELKKPGASVKVSCKASGYAFTTTGMQWVRQAPGQGLEWMGWINTHSGVPKYVEDFKGRFVFSLDTSVSTAYLQISSLKAEDTAVYYCARSGNGNYDLAYFKYWGQGTLVTVSSGGSPAGSPTSTEEGTSESATPESGPGTSTEPSEGSAPGSPAGSPTSTEEGTSTEPSEGSAPGTSTEPSEGSAPGTSESATPESGPGSEPATSGSETPGSEPATSGSETPGSPAGSPTSTEEGTSESATPESGPGTSTEPSEGSAPGTSTEPSEGSAPGSPAGSPTSTEEGTSTEPSEGSAPGTSTEPSEGSAPGTSESATPESGPGTSTEPSEGSAPGTSESATPESGPGSEPATSGSETPGTSTEPSEGSAPGTSTEPSEGSAPGTSESATPESGPGTSESATPESGPGSPAGSPTSTEEGTSESATPESGPGSEPATSGSETPGTSESATPESGPGTSTEPSEGSAPGTSTEPSEGSAPGTSTEPSEGSAPGTSTEPSEGSAPGTSTEPSEGSAPGTSTEPSEGSAPGSPAGSPTSTEEGTSTEPSEGSAPGTSESATPESGPGSEPATSGSETPGTSESATPESGPGSEPATSGSETPGTSESATPESGPGTSTEPSEGSAPGTSESATPESGPGSPAGSPTSTEEGSPAGSPTSTEEGSPAGSPTSTEEGTSESATPESGPGTSTEPSEGSAPGTSESATPESGPGSEPATSGSETPGTSESATPESGPGSEPATSGSETPGTSESATPESGPGTSTEPSEGSAPGSPAGSPTSTEEGTSESATPESGPGSEPATSGSETPGTSESATPESGPGSPAGSPTSTEEGSPAGSPTSTEEGTSTEPSEGSAPGTSESATPESGPGTSESATPESGPGTSESATPESGPGSEPATSGSETPGSEPATSGSETPGSPAGSPTSTEEGTSTEPSEGSAPGTSTEPSEGSAPGSEPATSGSETPGTSESATPESGPGTSTEPSEGSAP
~50 | – | anti-CD40-AE864, AC385 (scFv, Tested as cleared E. coli lysate, not purified; also called aCD40-XTEN; pBC0010) scFv: MAEIVLTQSPATLSLSPGERATLSCRASQSISDYLHWYQQKPGQAPRLLIYYASHSISGIPARFSGSGSGTDFTLTISSLEPEDFAVYYCQHGHSYPWTFGGGTKVEIKTGSGEGSEGEGGGEGSEGEGSGEGGEGEGSGTQVQLVQSGSELKKPGASVKVSCKASGYAFTTTGMQWVRQAPGQGLEWMGWINTHSGVPKYVEDFKGRFVFSLDTSVSTAYLQISSLKAEDTAVYYCARSGNGNYDLAYFKYWGQGTLVTVSSGGSPAGSPTSTEEGTSESATPESGPGTSTEPSEGSAPGSPAGSPTSTEEGTSTEPSEGSAPGTSTEPSEGSAPGTSESATPESGPGSEPATSGSETPGSEPATSGSETPGSPAGSPTSTEEGTSESATPESGPGTSTEPSEGSAPGTSTEPSEGSAPGSPAGSPTSTEEGTSTEPSEGSAPGTSTEPSEGSAPGTSESATPESGPGTSTEPSEGSAPGTSESATPESGPGSEPATSGSETPGTSTEPSEGSAPGTSTEPSEGSAPGTSESATPESGPGTSESATPESGPGSPAGSPTSTEEGTSESATPESGPGSEPATSGSETPGTSESATPESGPGTSTEPSEGSAPGTSTEPSEGSAPGTSTEPSEGSAPGTSTEPSEGSAPGTSTEPSEGSAPGTSTEPSEGSAPGSPAGSPTSTEEGTSTEPSEGSAPGTSESATPESGPGSEPATSGSETPGTSESATPESGPGSEPATSGSETPGTSESATPESGPGTSTEPSEGSAPGTSESATPESGPGSPAGSPTSTEEGSPAGSPTSTEEGSPAGSPTSTEEGTSESATPESGPGTSTEPSEGSAPGTSESATPESGPGSEPATSGSETPGTSESATPESGPGSEPATSGSETPGTSESATPESGPGTSTEPSEGSAPGSPAGSPTSTEEGTSESATPESGPGSEPATSGSETPGTSESATPESGPGSPAGSPTSTEEGSPAGSPTSTEEGTSTEPSEGSAPGTSESATPESGPGTSESATPESGPGTSESATPESGPGSEPATSGSETPGSEPATSGSETPGSPAGSPTSTEEGTSTEPSEGSAPGTSTEPSEGSAPGSEPATSGSETPGTSESATPESGPGTSTEPSEGSAP
– | 5 | aIL6R scFv-AE864, AC342 (scFv, Single-chain scFv-XTEN fusion expressed in E. coli; also called aIL6R-XTEN) scFv: MADIQMTQSPSSLSASVGDRVTITCRASQDISSYLNWYQQKPGKAPKLLIYYTSRLHSGVPSRFSGSGSGTDFTFTISSLQPEDIATYYCQQGNTLPYTFGQGTKVEIKTGSGEGSEGEGGGEGSEGEGSGEGGEGEGSGSQVQLQESGPGLVRPSQTLSLTCTVSGYSITSDHAWSWVRQPPGRGLEWIGYISYSGITTYNPSLKSRVTMLRDTSKNQFSLRLSSVTAADTAVYYCARSLARTTAMDYWGQGSLVTVSSGSPGSPAGSPTSTEEGTSESATPESGPGTSTEPSEGSAPGSPAGSPTSTEEGTSTEPSEGSAPGTSTEPSEGSAPGTSESATPESGPGSEPATSGSETPGSEPATSGSETPGSPAGSPTSTEEGTSESATPESGPGTSTEPSEGSAPGTSTEPSEGSAPGSPAGSPTSTEEGTSTEPSEGSAPGTSTEPSEGSAPGTSESATPESGPGTSTEPSEGSAPGTSESATPESGPGSEPATSGSETPGTSTEPSEGSAPGTSTEPSEGSAPGTSESATPESGPGTSESATPESGPGSPAGSPTSTEEGTSESATPESGPGSEPATSGSETPGTSESATPESGPGTSTEPSEGSAPGTSTEPSEGSAPGTSTEPSEGSAPGTSTEPSEGSAPGTSTEPSEGSAPGTSTEPSEGSAPGSPAGSPTSTEEGTSTEPSEGSAPGTSESATPESGPGSEPATSGSETPGTSESATPESGPGSEPATSGSETPGTSESATPESGPGTSTEPSEGSAPGTSESATPESGPGSPAGSPTSTEEGSPAGSPTSTEEGSPAGSPTSTEEGTSESATPESGPGTSTEPSEGSAPGTSESATPESGPGSEPATSGSETPGTSESATPESGPGSEPATSGSETPGTSESATPESGPGTSTEPSEGSAPGSPAGSPTSTEEGTSESATPESGPGSEPATSGSETPGTSESATPESGPGSPAGSPTSTEEGSPAGSPTSTEEGTSTEPSEGSAPGTSESATPESGPGTSESATPESGPGTSESATPESGPGSEPATSGSETPGSEPATSGSETPGSPAGSPTSTEEGTSTEPSEGSAPGTSTEPSEGSAPGSEPATSGSETPGTSESATPESGPGTSTEPSEGSAPG
